B1: wild-type FGF21 (mature, un-PEGylated) (ligand)
chain: MHPIPDSSPLLQFGGQVRQRYLYTDDAQQTEAHLEIREDGTVGGAADQSPESLLQLKALKPGVIQILGVKTSRFLCQRPDGALYGSLHFDPEACSFRELLLEDGYNVYQSEAHGLPLHLPGNKSPHRDPAPRGPARFLPLPGLPPAPPEPPGILAPQPPDVGSSDPLSMVGPSQGRSPSYAS
B2: FGF21 mutant H125C, P171G, PEGylated at the N-terminus (5k) and Cys 125 (20k) (ligand)
chain: MHPIPDSSPLLQFGGQVRQRYLYTDDAQQTEAHLEIREDGTVGGAADQSPESLLQLKALKPGVIQILGVKTSRFLCQRPDGALYGSLHFDPEACSFRELLLEDGYNVYQSEAHGLPLHLPGNKSPCRDPAPRGPARFLPLPGLPPAPPEPPGILAPQPPDVGSSDPLSMVGGSQGRSPSYAS
modifications: 5 kDa PEG on the N-terminus; 20 kDa PEG on Cys 125
B3: FGF21 mutant H125C, P171G, PEGylated at the N-terminus (10k) and Cys 125 (20k) (ligand)
chain: MHPIPDSSPLLQFGGQVRQRYLYTDDAQQTEAHLEIREDGTVGGAADQSPESLLQLKALKPGVIQILGVKTSRFLCQRPDGALYGSLHFDPEACSFRELLLEDGYNVYQSEAHGLPLHLPGNKSPCRDPAPRGPARFLPLPGLPPAPPEPPGILAPQPPDVGSSDPLSMVGGSQGRSPSYAS
modifications: 10 kDa PEG on the N-terminus; 20 kDa PEG on Cys 125
B4: FGF21 mutant R77C, P171G, PEGylated at the N-terminus and Cys 77 (2 x 20k) (ligand)
chain: MHPIPDSSPLLQFGGQVRQRYLYTDDAQQTEAHLEIREDGTVGGAADQSPESLLQLKALKPGVIQILGVKTSRFLCQCPDGALYGSLHFDPEACSFRELLLEDGYNVYQSEAHGLPLHLPGNKSPHRDPAPRGPARFLPLPGLPPAPPEPPGILAPQPPDVGSSDPLSMVGGSQGRSPSYAS
modifications: 20 kDa PEG on the N-terminus; 20 kDa PEG on Cys 77
B5: FGF21 mutant H125C, P171G, PEGylated at the N-terminus and Cys 125 (2 x 20k) (ligand)
chain: MHPIPDSSPLLQFGGQVRQRYLYTDDAQQTEAHLEIREDGTVGGAADQSPESLLQLKALKPGVIQILGVKTSRFLCQRPDGALYGSLHFDPEACSFRELLLEDGYNVYQSEAHGLPLHLPGNKSPCRDPAPRGPARFLPLPGLPPAPPEPPGILAPQPPDVGSSDPLSMVGGSQGRSPSYAS
modifications: 20 kDa PEG on the N-terminus; 20 kDa PEG on Cys 125
B6: Tethered Molecule of two FGF21 P171C polypeptides (20 kDa PEG linker) (ligand)
chain: MHPIPDSSPLLQFGGQVRQRYLYTDDAQQTEAHLEIREDGTVGGAADQSPESLLQLKALKPGVIQILGVKTSRFLCQRPDGALYGSLHFDPEACSFRELLLEDGYNVYQSEAHGLPLHLPGNKSPHRDPAPRGPARFLPLPGLPPAPPEPPGILAPQPPDVGSSDPLSMVGCSQGRSPSYAS
modifications: Cys 171 of the two chains joined by one 20 kDa PEG bis-maleimide
B7: Tethered Molecule of two FGF21 R77C, P171G polypeptides (20 kDa PEG linker) (ligand)
chain: MHPIPDSSPLLQFGGQVRQRYLYTDDAQQTEAHLEIREDGTVGGAADQSPESLLQLKALKPGVIQILGVKTSRFLCQCPDGALYGSLHFDPEACSFRELLLEDGYNVYQSEAHGLPLHLPGNKSPHRDPAPRGPARFLPLPGLPPAPPEPPGILAPQPPDVGSSDPLSMVGGSQGRSPSYAS
modifications: Cys 77 of the two chains joined by one 20 kDa PEG bis-maleimide
B8: Tethered Molecule of two FGF21 E37C, P171G polypeptides (20 kDa PEG linker) (ligand)
chain: MHPIPDSSPLLQFGGQVRQRYLYTDDAQQTEAHLEIRCDGTVGGAADQSPESLLQLKALKPGVIQILGVKTSRFLCQRPDGALYGSLHFDPEACSFRELLLEDGYNVYQSEAHGLPLHLPGNKSPHRDPAPRGPARFLPLPGLPPAPPEPPGILAPQPPDVGSSDPLSMVGGSQGRSPSYAS
modifications: Cys 37 of the two chains joined by one 20 kDa PEG bis-maleimide
B9: Tethered Molecule of two FGF21 H125C, P171G polypeptides (20 kDa PEG linker) (ligand)
chain: MHPIPDSSPLLQFGGQVRQRYLYTDDAQQTEAHLEIREDGTVGGAADQSPESLLQLKALKPGVIQILGVKTSRFLCQRPDGALYGSLHFDPEACSFRELLLEDGYNVYQSEAHGLPLHLPGNKSPCRDPAPRGPARFLPLPGLPPAPPEPPGILAPQPPDVGSSDPLSMVGGSQGRSPSYAS
modifications: Cys 125 of the two chains joined by one 20 kDa PEG bis-maleimide
B10: Tethered Molecule of two FGF21 G120C, P171G polypeptides (20 kDa PEG linker) (ligand)
chain: MHPIPDSSPLLQFGGQVRQRYLYTDDAQQTEAHLEIREDGTVGGAADQSPESLLQLKALKPGVIQILGVKTSRFLCQRPDGALYGSLHFDPEACSFRELLLEDGYNVYQSEAHGLPLHLPCNKSPHRDPAPRGPARFLPLPGLPPAPPEPPGILAPQPPDVGSSDPLSMVGGSQGRSPSYAS
modifications: Cys 120 of the two chains joined by one 20 kDa PEG bis-maleimide
B11: Tethered Molecule of two FGF21 R175C, P171G polypeptides (20 kDa PEG linker) (ligand)
chain: MHPIPDSSPLLQFGGQVRQRYLYTDDAQQTEAHLEIREDGTVGGAADQSPESLLQLKALKPGVIQILGVKTSRFLCQRPDGALYGSLHFDPEACSFRELLLEDGYNVYQSEAHGLPLHLPGNKSPHRDPAPRGPARFLPLPGLPPAPPEPPGILAPQPPDVGSSDPLSMVGGSQGCSPSYAS
modifications: Cys 175 of the two chains joined by one 20 kDa PEG bis-maleimide
B12: Tethered Molecule of two FGF21 E91C, P171G polypeptides (20 kDa PEG linker) (ligand)
chain: MHPIPDSSPLLQFGGQVRQRYLYTDDAQQTEAHLEIREDGTVGGAADQSPESLLQLKALKPGVIQILGVKTSRFLCQRPDGALYGSLHFDPCACSFRELLLEDGYNVYQSEAHGLPLHLPGNKSPHRDPAPRGPARFLPLPGLPPAPPEPPGILAPQPPDVGSSDPLSMVGGSQGRSPSYAS
modifications: Cys 91 of the two chains joined by one 20 kDa PEG bis-maleimide
B13: Tethered Molecule of two FGF21 G170C polypeptides (20 kDa PEG linker) (ligand)
chain: MHPIPDSSPLLQFGGQVRQRYLYTDDAQQTEAHLEIREDGTVGGAADQSPESLLQLKALKPGVIQILGVKTSRFLCQRPDGALYGSLHFDPEACSFRELLLEDGYNVYQSEAHGLPLHLPGNKSPHRDPAPRGPARFLPLPGLPPAPPEPPGILAPQPPDVGSSDPLSMVCPSQGRSPSYAS
modifications: Cys 170 of the two chains joined by one 20 kDa PEG bis-maleimide

biological target: beta-klotho; assay: cell-based or functional assay

Binder | EC50, ELK-luciferase assay [nM]
B1 | 0.63

biological target: beta-klotho; assay: cell-based or functional assay; remark: another data set of the same source

Binder | In Vitro Activity EC50, ELK-luciferase assay [nM]
B1 | 3

biological target: beta-klotho; assay: cell-based or functional assay; remark: another data set of the same source

Binder | EC50, ELK-luciferase assay [nM]
B1 | 3

biological target: beta-klotho; assay: cell-based or functional assay; remark: another data set of the same source

Binder | EC50, ELK-luciferase assay [nM]
B2 | 30
B3 | 65
B4 | 64
B5 | 152

biological target: beta-klotho; assay: cell-based or functional assay; remark: another data set of the same source

Binder | EC50, ELK-luciferase assay [nM]
B6 | 0.21
B7 | 0.25
B8 | 0.36
B9 | 0.21
B10 | 0.51
B11 | 0.36
B12 | 0.2
B13 | 0.47

— patent publication US20160244497A1 (Amgen, published 2016)
